In patent publication US20180339041A1 (Kyowa Kirin, published 2018):

T1: C-terminally FLAG-tagged human Gas6 recombinant protein (hGas6-F) (human, UniProt Q14393 31-678, gamma-carboxylated glutamic acid residues in the Gla domain (producer cells co-express rat VKOR and human GGCX); positions not given)
T1 construct: also called human Gas6-F; human Gas6 protein
T1 sequence: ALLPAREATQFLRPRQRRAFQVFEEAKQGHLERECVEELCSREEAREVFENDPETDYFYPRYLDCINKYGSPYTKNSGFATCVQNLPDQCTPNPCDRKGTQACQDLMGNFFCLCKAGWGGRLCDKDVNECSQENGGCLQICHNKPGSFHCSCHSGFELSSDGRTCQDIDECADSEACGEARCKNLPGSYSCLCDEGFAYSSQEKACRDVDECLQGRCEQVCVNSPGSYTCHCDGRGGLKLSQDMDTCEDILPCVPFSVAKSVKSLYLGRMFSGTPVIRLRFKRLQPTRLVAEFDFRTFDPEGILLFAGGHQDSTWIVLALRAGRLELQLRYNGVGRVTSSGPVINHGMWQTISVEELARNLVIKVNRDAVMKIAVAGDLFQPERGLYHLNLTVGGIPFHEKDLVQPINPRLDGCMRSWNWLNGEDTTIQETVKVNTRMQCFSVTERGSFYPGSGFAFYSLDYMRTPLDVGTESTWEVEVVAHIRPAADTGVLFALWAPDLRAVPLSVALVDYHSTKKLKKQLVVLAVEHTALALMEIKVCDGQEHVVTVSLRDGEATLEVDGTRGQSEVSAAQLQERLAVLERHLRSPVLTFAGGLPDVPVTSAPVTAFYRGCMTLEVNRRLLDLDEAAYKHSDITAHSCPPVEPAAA

T2: C-terminally FLAG-tagged mouse Gas6 recombinant protein (mGas6-F) (mouse, UniProt Q61592 28-674, limits assumed, gamma-carboxylated glutamic acid residues in the Gla domain (producer cells co-express rat VKOR and human GGCX); positions not given)
T2 construct: also called mouse Gas6-F
T2 sequence (looked up): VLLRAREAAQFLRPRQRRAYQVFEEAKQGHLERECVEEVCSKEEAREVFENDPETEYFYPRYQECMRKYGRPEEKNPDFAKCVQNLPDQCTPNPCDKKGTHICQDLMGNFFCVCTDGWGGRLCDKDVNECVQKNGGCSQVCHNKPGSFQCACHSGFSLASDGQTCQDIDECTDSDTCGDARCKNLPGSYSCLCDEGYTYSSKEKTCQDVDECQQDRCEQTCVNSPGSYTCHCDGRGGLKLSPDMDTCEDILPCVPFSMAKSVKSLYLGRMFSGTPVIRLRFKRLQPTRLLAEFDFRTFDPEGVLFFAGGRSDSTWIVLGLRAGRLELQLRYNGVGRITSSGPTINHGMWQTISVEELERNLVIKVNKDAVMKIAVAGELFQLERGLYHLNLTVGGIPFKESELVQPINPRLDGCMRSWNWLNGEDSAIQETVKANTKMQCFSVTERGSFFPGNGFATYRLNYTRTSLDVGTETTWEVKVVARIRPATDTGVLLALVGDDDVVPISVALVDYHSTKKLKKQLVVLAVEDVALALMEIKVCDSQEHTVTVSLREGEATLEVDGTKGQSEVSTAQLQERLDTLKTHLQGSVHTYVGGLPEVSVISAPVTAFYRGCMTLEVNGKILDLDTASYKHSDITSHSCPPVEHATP

T3: C-terminally FLAG-tagged cynomolgus monkey Gas6 recombinant protein (cGas6-F) (cynomolgus monkey, UniProt Q14393 31-678 (human entry), gamma-carboxylated glutamic acid residues in the Gla domain (producer cells co-express rat VKOR and human GGCX); positions not given)
T3 construct: also called cynomolgus monkey Gas6-F; monkey Gas6-F
T3 chain: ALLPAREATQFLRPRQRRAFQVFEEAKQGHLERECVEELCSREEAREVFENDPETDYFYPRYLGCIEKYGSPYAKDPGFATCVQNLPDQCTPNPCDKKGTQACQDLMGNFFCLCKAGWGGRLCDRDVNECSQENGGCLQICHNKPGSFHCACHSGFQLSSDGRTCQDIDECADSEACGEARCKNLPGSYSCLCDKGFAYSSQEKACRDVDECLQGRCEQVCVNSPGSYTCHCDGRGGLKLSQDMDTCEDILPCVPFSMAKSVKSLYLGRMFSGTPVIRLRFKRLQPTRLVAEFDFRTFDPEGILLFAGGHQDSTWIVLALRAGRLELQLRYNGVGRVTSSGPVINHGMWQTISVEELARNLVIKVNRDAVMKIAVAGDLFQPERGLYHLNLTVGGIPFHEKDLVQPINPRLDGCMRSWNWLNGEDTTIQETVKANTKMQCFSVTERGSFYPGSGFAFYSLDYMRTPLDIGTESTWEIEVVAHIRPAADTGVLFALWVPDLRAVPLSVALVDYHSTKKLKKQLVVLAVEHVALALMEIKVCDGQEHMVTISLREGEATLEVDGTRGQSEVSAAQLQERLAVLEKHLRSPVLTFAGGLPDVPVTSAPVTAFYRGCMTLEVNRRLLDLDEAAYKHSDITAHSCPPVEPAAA


Key:
[1] = biological target: T1, C-terminally FLAG-tagged human Gas6 …; test: competitive ELISA, hAxl-hFc immobilised, 50 ng/mL hGas6-F
[2] = biological target: T2, C-terminally FLAG-tagged mouse Gas6 …; test: ELISA: mGas6-F (1 µg/mL) captured on coated anti-FLAG M2 antibody; biotinylated test antibody; streptavidin-HRP/TMB; absorbance 450-570 nm, N=2 (Example 6) [D]
Experimental: (§1) First, 2 μg/mL anti-FLAG antibody [Monoclonal ANTI-FLAG M2 antibody produced in mouse (manufactured by Sigma-Aldrich Co. LLC) diluted with PBS (manufactured by Nacalai Tesque, Inc.)] was dispensed at 50 μL/well to a 96-well plate for ELISA (manufactured by Nalge Nunc International), and the plate was left standing overnight at 4° C. for adsorption. After removal of the immobilization solution, 1% BSA-PBS (manufactured by Nacalai Tesque, Inc.) was added thereto at 300 μL/well, and the plate was left standing at room temperature for 1 hour for blocking and washed five times with Tween 20-PBS (manufactured by Wako Pure Chemical Industries Ltd.).
(§2) Each antibody solution was dispensed thereto at 50 μL/well, and the plate was left standing at room temperature for 1 hour. This plate was washed five times with Tween 20-PBS. Then, Streptavidin HRP Conjugate (manufactured by R&D Systems, Inc.) diluted 200-fold with 1% BSA-PBS was dispensed thereto at 50 μL/well, and the plate was left standing at room temperature for 1 hour. This plate was washed five times with Tween 20-PBS, and TMB (manufactured by Sigma-Aldrich Co. LLC) was added thereto at 50 μL/well and reacted. […] The absorbance at a sample wavelength of 450 nm and a reference wavelength of 570 nm (450 nm-570 nm) was measured using a plate reader.

[3] = biological target: T3, C-terminally FLAG-tagged cynomolgus …; test: ELISA: cGas6-F (1 µg/mL) captured on coated anti-FLAG M2 antibody; biotinylated test antibody; streptavidin-HRP/TMB; absorbance 450-570 nm, N=2 (Example 6) [B]
Experimental: as §1, §2

Row | antibody:Gas6 molar concentration ratio at complete inhibition [1] | EC50 (read off the curve) [2] [ng/mL] | EC50 (read off the curve) [3] [ng/mL] | Binder
1 | 0.5 antibody:Gas6 molar ratio | ~4 | ~4 | anti-human Gas6 mouse monoclonal antibody KM5321 (KM5321-mKG1 antibody) (antibody, V domains shown, Hybridoma-derived mouse IgG1, kappa; also called KM5321 antibody) VH: QIQLVQSGPELKKPGETVKISCRASGYTFTNYGMNWVKQAPGKGLKWMGWINTNTGEPTYTEEFKGRFAFSLETSATTAYLQINDLKNEDTATYFCARDEGWFVYWGQGTLITVSA VL: ETTVTQSPASLSVATGEKVTIRCITSTDIDDDMNWYQQKPGEPPKLLISEGNTLRPGVPSRFSSSGYGTDFVFTIENTLSEDVADYYCLQTDSVPLTFGAGTKLELK
2 | 2 antibody:Gas6 molar ratio | ~3 | ~4 | anti-human Gas6 mouse monoclonal antibody KM5320 (KM5320-mKG1 antibody) (antibody, V domains shown, Hybridoma-derived mouse IgG1, kappa; also called KM5320 antibody) VH: QIQLVQSGPELKKPGETVKISCKASGYTFTNYGMNWVKQAPGKGLKWMGWINTETGEPTYSDDFKGRFAFSLETSATTAYLQINNLRNEDMATYFCAREDGYYGTLDYWGQGTSVTVSS VL: SIVMTQTPKFLLVSAGDRVTITCKASQSVSNDVAWYQQKPGQSPKVLIYYASNRYTGVPDRFTGSGYGTDFTFTISTVQAEDLAVYFCQQDYSSPWTFGGGTKLEIK
